Measured values reported in US20220218790A1 (UNIVERSITY OF SHEFFIELD, published 2022).

T1: PTH receptor of the PTH responsive cell line UMR-106 (rat osteoblastic like cell line) (rat, UniProt P25961 27-591)
T1 sequence (looked up): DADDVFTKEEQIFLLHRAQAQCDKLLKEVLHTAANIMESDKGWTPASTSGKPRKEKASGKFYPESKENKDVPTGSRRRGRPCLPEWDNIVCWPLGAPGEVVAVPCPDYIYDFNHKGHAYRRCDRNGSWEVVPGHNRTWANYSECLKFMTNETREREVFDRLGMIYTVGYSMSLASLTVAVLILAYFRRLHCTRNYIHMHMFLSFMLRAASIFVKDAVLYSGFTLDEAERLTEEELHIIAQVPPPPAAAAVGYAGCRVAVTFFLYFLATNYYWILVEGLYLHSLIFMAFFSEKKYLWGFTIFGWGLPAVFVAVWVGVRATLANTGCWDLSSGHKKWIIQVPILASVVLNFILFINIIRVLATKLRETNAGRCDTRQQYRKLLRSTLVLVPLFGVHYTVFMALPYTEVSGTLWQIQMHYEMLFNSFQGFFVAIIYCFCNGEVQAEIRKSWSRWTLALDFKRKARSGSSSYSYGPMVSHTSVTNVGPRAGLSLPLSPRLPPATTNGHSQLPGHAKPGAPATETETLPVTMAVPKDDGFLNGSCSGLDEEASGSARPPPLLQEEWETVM

B1: 14A2c = PTHss-pp-PTH (1-34)-(g4s)4-PTHrExt-(g4s)4-GHbp (other)
chain: SVSEIQLMHNLGKHLNSMERVEWLRKKLQDVHNFGGGGSGGGGSGGGGSGGGGSDDVMTKEEQIFLLHRAQAQCEKRLKEVLQRPASIMESDKGWTSASTSGKPRKDKASGKLYPESEEDKEAPTGSRYRGRPCLPEWDHILCWPLGAPGEVVAVPCPDYIYDFNHKGHAYRRCDRNGSWELVPGHNRTWANYSECVKFLTNETREREVFDRLGGGGSGGGGSGGGGSGGGGSFSGSEATAAILSRAPWSLQSVNPGLKTNSSKEPKFTKCRSPERETFSCHWTDEVHHGTKNLGPIQLFYTRRNTQEWTQEWKECPDYVSAGENSCYFNSSFTSIAIPYCIKLTSNGGTVDEKCFSVDEIVQPDPPIALNWTLLNVSLTGIHADIQVRWEAPRNADIQKGWMVLEYELQYKEVNETKWKMMDPILTTSVPVYSLKVDKEYEVRVRSKQRNSGNYGEFSEVLYVTLPQMSQ
B2: 14A3b = GHss-PTH (1-34)-(g4s)4-PTHrExt-(g4s)4-GHbp (other)
chain: B1 chain
B3: 14A7 = PTHss-pp-PTH(1-34)-(g4s)4-GHbp (other)
chain: SVSEIQLMHNLGKHLNSMERVEWLRKKLQDVHNFGGGGSGGGGSGGGGSGGGGSFSGSEATAAILSRAPWSLQSVNPGLKTNSSKEPKFTKCRSPERETFSCHWTDEVHHGTKNLGPIQLFYTRRNTQEWTQEWKECPDYVSAGENSCYFNSSFTSIAIPYCIKLTSNGGTVDEKCFSVDEIVQPDPPIALNWTLLNVSLTGIHADIQVRWEAPRNADIQKGWMVLEYELQYKEVNETKWKMMDPILTTSVPVYSLKVDKEYEVRVRSKQRNSGNYGEFSEVLYVTLPQMSQ

Molecular target: T1, PTH receptor of the PTH responsive cell …
Assay: cell-based or functional assay

| Binder | Dual Luciferase Reporter Assay, fold increase of 14A2c over 14A3b at 100 nM | Dual Luciferase Reporter Assay, fold increase of 14A2c over 14A3b at 500 nM | EC50, Dual Luciferase Reporter Assay, UMR-106 cells | fold increase in cAMP levels over 14A3b, UMR-106 cells, 500 nM | fold by which PTH is more potent than this fusion (EC50, Dual Luciferase Reporter Assay) |
| --- | --- | --- | --- | --- | --- |
| B1 | ~1.3 fold | ~1.6 fold | 579 nM | 11 fold |  |
| B2 |  |  | 896 nM |  |  |
| B3 |  |  | 153 nM |  | 4.7 fold |
